Blank lines part the entries; values can stand above or below the molecule they belong to. No end group written: not given here. me3 = trimethyl on lysine side chain
Columns and labels:
[1] = biological target: BAHD1 BAH domain, 589-780 (UniProt Q8TBE0); assay: isothermal titration calorimetry; conditions: reference: H3K27me3 peptide; sites S28
[2] = biological target: T1, BAH domain of human BAHD1 (BAH589-780), wild type (Homo sapiens, UniProt Q8TBE0); assay: Isothermal titration calorimetry (ITC), wild type BAH domain; assay type: binding; conditions: wild type BAHBAHD1
T1 construct: The BAH domain encompassing residues 589-780 of human BAHD1 was cloned in to a; 10xHis-SUMO (N, cleaved yes); made in house; host or cells: E. coli BL21 (DE3)
T1 sequence (Q8TBE0 589-780): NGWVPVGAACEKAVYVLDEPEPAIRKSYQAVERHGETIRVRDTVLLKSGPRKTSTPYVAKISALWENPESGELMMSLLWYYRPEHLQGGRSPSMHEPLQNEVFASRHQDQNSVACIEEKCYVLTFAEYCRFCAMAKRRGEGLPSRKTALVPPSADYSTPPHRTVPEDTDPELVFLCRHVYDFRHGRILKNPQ

[3] = biological target: BAH domain of human BAHD1 (residues 589-780), wild type (human) (UniProt Q8TBE0); assay: ITC; BAH domain (wild type or mutant) titrated with histone peptide; 15 °C, MicroCal iTC200; 20 mM Tris pH 8.5, 500 mM (NH)2SO4, 5% glycerol; "One Set of Binding Sites" fitting model
[4] = biological target: BAH_(BAHD1) domain (aa 589–780), as used in ITC and HXMS (human) (UniProt Q8TBE0); assay: ITC; BAH_(BAHD1) domain titrated with histone peptides; optimized buffer condition (Tm 39°C in thermal shift assays)
[5] = biological target: T2, BAH domain of human BAHD1 (residues 589-780), wild type (human, UniProt Q8TBE0 589-780); assay: ITC; BAH domain (wild type or mutant) titrated with histone peptide; 15 °C, MicroCal iTC200; 20 mM Tris pH 8.5, 500 mM (NH)2SO4, 5% glycerol; "One Set of Binding Sites" fitting model; conditions: both partners purified
T2 construct: BAHD1 (bromo adjacent homology domain containing protein 1), human, BAH domain, residues 589-780 of the full-length protein (1-780); also called BAH589-780; BAH_(BAHD1); source: E. coli BL21 (DE3), purified (HisTrap, tag cleaved by ULP1, Superdex G75); not shown: 10xHis-SUMO, N-terminal, cleaved
T2 sequence (looked up): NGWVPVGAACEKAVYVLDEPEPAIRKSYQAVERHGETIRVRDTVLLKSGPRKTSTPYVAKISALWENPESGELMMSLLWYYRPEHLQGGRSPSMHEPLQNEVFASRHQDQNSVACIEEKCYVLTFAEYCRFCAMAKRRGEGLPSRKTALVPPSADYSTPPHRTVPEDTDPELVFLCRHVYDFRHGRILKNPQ

KD [1]: weaker; reference 15.9
Molecule: histone H3 15-42 H3K27me3S28ph peptide

binding observed by ITC (in words) [2]: no bindings were observed
Molecule: NH2-ARTKQTAR(me2s)KS-COOH [H31-10R8me2s, histone H3 peptide residues 1-10 with R8me2s]

stoichiometry N [3]: 1
Molecule: histone H3 (15-42) K27me1 peptide

stoichiometry N [3]: 1
Molecule: histone H3 (15-42) K27me3 peptide

Kd [4]: 2.6 mM
Molecule: H3_(1-15)K9me3 peptide (from UniProt P68431 2-16)

fold reduction of binding against H3 (15-42)K27me3 [4]: 7.8 fold
Molecule: H3K27me3 peptide, H3 frame 21–32 (from UniProt P68431 22-33)

fold reduction of binding against H3 (15-42)K27me3 [4]: 3.9 fold
Molecule: H3K27me3 peptide, H3 frame 19–34 (from UniProt P68431 20-35)

stoichiometry N [3]: 1
Molecule: histone H3 (15-42) K27me3 S28ph peptide

binding observed by ITC (in words) [2]: no bindings were observed
Molecule: ARTKQTARKSTGGK(ac)A-NH2 [H31-15K14ac, histone H3 peptide residues 1-15 with acetylated K14]

Kd [4]: 2 mM
Molecule: H3K27me1 peptide

stoichiometry N [3]: 1.1
Molecule: histone H3 (15-42) K27me2 peptide

Kd [5]: 124 µM
stoichiometry N [5]: 1.1
B1: histone H3 (21-32) K27me3 peptide (peptide)
peptide: ATKAARK(me3)SAPAT
notes: histone H3, residues 21-32 (A31: as in H3.1/H3.2); source: synthetic peptide (SciLight Biotechnology)

Kd [5]: 61.3 µM
B2: histone H3 (19-34) K27me3 peptide (peptide)
peptide: QLATKAARKSAPATGG
modifications: trimethyl-lysine at K27 (K(me3))
notes: histone H3, residues 19-34 (A31: as in H3.1/H3.2); source: synthetic peptide (SciLight Biotechnology)
